Reference: patent US20240317847A1 (Bayer, published 2024)

T1: human IL2Ra (human, UniProt P01589 22-240, limits assumed)
T1 construct: coated on the ELISA plate; also called IL-2 receptor alpha
T1 sequence (looked up): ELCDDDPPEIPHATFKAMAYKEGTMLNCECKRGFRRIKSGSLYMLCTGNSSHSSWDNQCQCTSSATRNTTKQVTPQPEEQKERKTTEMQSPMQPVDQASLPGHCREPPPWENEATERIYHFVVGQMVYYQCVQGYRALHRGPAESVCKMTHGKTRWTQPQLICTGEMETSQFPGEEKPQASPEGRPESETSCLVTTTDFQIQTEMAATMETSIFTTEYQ

T2: human IL-11 (human, UniProt P20809 22-199)
T2 construct: Invigate recombinant protein; biotinylated when immobilized in the Di-complex ELISA; also called hIL11; hIL-11
T2 sequence: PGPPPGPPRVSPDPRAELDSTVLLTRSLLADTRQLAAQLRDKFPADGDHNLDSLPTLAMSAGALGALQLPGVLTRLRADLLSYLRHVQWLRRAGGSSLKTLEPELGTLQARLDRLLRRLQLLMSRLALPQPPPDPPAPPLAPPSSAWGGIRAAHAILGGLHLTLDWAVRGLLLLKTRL

T3: human IL-11 (Invigate, e.g., lot #C121021-19) (human, UniProt P20809 22-199)
T3 sequence: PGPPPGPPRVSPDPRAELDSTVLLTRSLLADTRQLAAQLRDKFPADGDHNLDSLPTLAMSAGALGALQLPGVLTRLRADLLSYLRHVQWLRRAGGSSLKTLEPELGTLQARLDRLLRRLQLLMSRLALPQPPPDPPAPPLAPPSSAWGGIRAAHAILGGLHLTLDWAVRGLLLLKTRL

T4: murine IL-11 (Invigate, e.g., lot #C210819-09) (mouse, UniProt P47873 22-199)
T4 sequence: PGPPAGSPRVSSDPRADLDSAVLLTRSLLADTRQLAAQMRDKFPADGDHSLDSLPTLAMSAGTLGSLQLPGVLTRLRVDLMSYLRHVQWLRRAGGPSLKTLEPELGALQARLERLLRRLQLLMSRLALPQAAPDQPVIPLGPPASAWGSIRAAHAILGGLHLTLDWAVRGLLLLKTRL


Assays:
human IL2Ra = target: T1, human IL2Ra; experiment: ELISA on coated IL2Ra, signal ratio to isotype control
Experimental: IL2RA (Peprotech, Germany, #200-02RC) was coated at 1 or 0 μg/ml (buffer only control) in 30 μl coating buffer (Candor, #113500) per well on a 384 well microtiter plate (Maxisorb, Nunc, #460518) over night at 4-8° C. After two washes with 50 μl/well washing buffer (PBS+0.05% Tween, pH 7.4), the plates were incubated for two hours at room temperature with 50 μl/well SmartBlock (Candor, #113500). After blocking, the plates were washed three times with washing buffer. Then, a dilution series of the respective antibody (1E-7 [M] down to 2E-13 [M]) in PBS+0.05% Tween, 10% SmartBlock were added in 30 μl to the microtiter plate and incubated for 90 min at room temperature. After three additional washes, 30 μl anti mouse IgG HRP-conjugated antibody (Biotechne, HAF007), diluted 1:1000 in PBS+0.05% Tween (pH 7.4), were added per well and incubated for one hour. […] Relative fluorescence was measured with a microtiter plate reader at 535/590 nm.
Bispecific antibodies were subjected to the experimental assay procedure described in Example 20. Ratios of the signals generated at an antibody concentration of 1E-07 [M] by the respective bispecific antibody versus those of an isotype control antibody were calculated and are shown in Table E29. […]

human IL-11 = target: T2, human IL-11; experiment: Tri-complex ELISA, hIL-11 + mIL-11Ra-Fc + hgp130-Fc, inhibition of complex formation
Experimental: (§1) In the Tri-complex ELISA format IL-11 antibodies are tested for their ability to inhibit the formation of a complex consisting of murine or human gp130-Fc fusion protein, with murine or human IL-11, and a murine IL11RA-Fc fusion protein. The assay format was adapted according to FIG. 18 (a, b), depending on whether murine or human IL-11 IgG antibodies were tested.
Bispecific antibodies were subjected to the experimental assay procedure described in Example 19 and IC50 [M], respectively efficacy (%) were calculated accordingly.

[1] = target: T3, human IL-11 (Invigate, e.g., lot …); experiment: cell-based or functional assay
[2] = target: T4, murine IL-11 (Invigate, e.g., lot …); experiment: cell-based or functional assay
[3] = target: T4, murine IL-11 (Invigate, e.g., lot …); experiment: Tri-complex ELISA: antibody titrated against 8 nM murine IL-11, 2 nM murine gp130-human-Fc and 2 nM murine IL11RA-murine-Fc
Experimental: as §1
The assay was performed using High Binding microtiter plates (Greiner, #781077). In a first step, 25 μl of goat anti human IgG (Sigma, #12136), diluted 1:1000 in coating buffer (Candor, #121125) was coated on the plate at 4° C. overnight. Next day, the plate was washed one time with 50 μl PBST and then blocked with 50 μl SmartBlock (Candor, #113125) for one hour at room temperature (RT). […] After three additional washes of the coated and blocked microtiter plate with PBS-T, 25 μl of each mixture were added and the assay plate was incubated for one hour at room temperature. After three additional washes, anti-mouse-gp130 biotinylated antibody (R&D, #BAF468) or anti-human gp130 biotinylated antibody (R&D, #BAF228), both 1:1000 in 10% SmartBlock PBS-T, was added and incubated for 1 hour at RT. After three additional washes, a Streptavidin-Peroxidase conjugate (Sigma, #S5512) 1:1000 in SmartBlock PBS-T was added and incubated for one hour at room temperature. After a final three washes, AmplexRed (Fisher Scientific, A12222), 1/1000 in PBS, 0,003% H₂O₂, was added as substrate and incubated for 15 min at RT in the dark. Then, the fluorescence was measured with a plate reader at 535/595 nm. Signals from dose responses were used to calculate IC50 values using GraphPad Prism software.

binding result (human IL2Ra) | Efficacy (%) (human IL-11) | IC50 (human IL-11) | Efficacy (%), Stat3 reporter gene assay, human IL11RA, 0.78 nM hIL-11 [1] | IC50 [M], Stat3 reporter gene assay, HEK 293F transfected with human IL11RA, 0.78 nM hIL-11 [1] | Efficacy (%), Stat3 reporter gene assay, mouse Il11ra, 3.13 nM mIL-11 [2] | IC50 [M], Stat3 reporter gene assay, HEK 293F transfected with mouse Il11ra, 3.13 nM mIL-11 [2] | Efficacy (%) [3] | IC50 [3] | Binder
no binding (tested: 1E-07 M antibody) | 104% | 1.6 nM |  |  |  |  |  |  | TPP-29697 (bispecific antibody, IgG1, scFv-kih-hIgG1 with Fc-silencing mutations; bispecific comprising CDRs of TPP-29528 and TPP-29519) chain 1: QVQLVESGGGVVQPGRSLRLSCAASGFTFSHYDMHWVRQAPGKGLEWVAVISYHGSVKFYADSVKGRFTISRDNSKNTLYLQMNSLRAEDTAVYYCARTPGFHFDYWGQGTLVTVSSGGGGSGGGGSGGGGSQSVLTQPPSASGTPGQRVTISCSGSSSNIGSNYVSWYQQLPGTAPKLLIYYDDLRPSGVPDRFSGSKSGTSASLAISGLRSEDEADYYCSAWDDSLSGVVFGGGTKLTVLGGGGSGGGGSGGGGSGVECPPCPAPPVAGPSVFLFPPKPKDTLMISRTPEVTCVVVGVSHEDPEVKFNWYVDGVEVHNAKTKPREEQYNSTYRVVSVLTVLHQDWLNGKEYKCKVSNKQLPSPIEKTISKAKGQPREPQVYTLPPCRDELTKNQVSLWCLVKGFYPSDIAVEWESNGQPENNYKTTPPVLDSDGSFFLYSKLTVDKSRWQQGNVFSCSVMHEALHNHYTQKSLSLSPGK chain 2: EVQLLESGGGLVQPGGSLRLSCAASGFTFSSYGMHWVRQAPGKGLEWVAVISYDGSYKYYADSVKGRFTISRDNSKNTLYLQMNSLRAEDTAVYYCAAGVPDYWGQGTLVTVSSGGGGSGGGGSGGGGSQSVLTQPPSASGTPGQRVTISCSGSSSNIGSDYDVHWYQQLPGTAPKLLIYSNEERPSGVPDRFSGSKSGTSASLAISGLRSEDEADYYCSAWDSSLSGPVFGGGTKLTVLGGGGSGGGGSGGGGSGVECPPCPAPPVAGPSVFLFPPKPKDTLMISRTPEVTCVVVGVSHEDPEVKFNWYVDGVEVHNAKTKPREEQYNSTYRVVSVLTVLHQDWLNGKEYKCKVSNKQLPSPIEKTISKAKGQPREPQVCTLPPSRDELTKNQVSLSCAVKGFYPSDIAVEWESNGQPENNYKTTPPVLDSDGSFFLVSKLTVDKSRWQQGNVFSCSVMHEALHNHYTQKSLSLSPGK
 |  |  | 51.5% | 1.07e-07 M | 49% | 3.31e-07 M | 5.5% |  | TPP-18087 (antibody, mouse IgG1, V domains shown, mIgG1, Lambda) VH: EVQLLESGGGLVQPGGSLRLSCAASGFTFSHYDMNWLRQAPGKGLEWVGVISYDGSNKFYADFVKGRFTISRDNSKNTLYLQMNSLRAEDTAVYYCARTPGSHFDYWGQGTLVTVSS VL: QSVLTQPPSASGTPGQRVTISCSGSSSNIGNNAVNWYQQLPGTAPKLLIYYDDLLPSGVPDRFSGSKSGTSASLAISGLRSEDEADYYCSAWDDSLNGVVFGGGTKLTVLG
 |  |  | 65.6% | 1.5e-08 M | 80.7% | 9.6e-09 M | 76.6% | 14 nM | TPP-19528 (antibody, mouse IgG1, V domains shown, mIgG1, Lambda) VH: EVQLLESGGGLVQPGGSLRLSCAASGFTFSIYAMSWVRQAPGKGLEWVSSISDTGDRTYYADSVKGRFTISRDNSKNTLYLQMNSLRAEDTAVYYCARSNWGSLDYWGQGTLVTVSS VL: QSVLTQPPSASGTPGQRVTISCSGSSSNIGSNYVYWYQQLPGTAPKLLIYYDDLLPSGVPDRFSGSKSGTSASLAISGLRSEDEADYYCAAWDDSLSGRVFGGGTKLTVLG
no binding (tested: 1E-07 M antibody) | 98.5% | 0.696 nM |  |  |  |  |  |  | TPP-29603 (bispecific antibody, IgG1, scFv-kih-mIgG1; bispecific comprising CDRs of TPP-29528 and TPP-29519) chain 1: QVQLVESGGGVVQPGRSLRLSCAASGFTFSHYDMHWVRQAPGKGLEWVAVISYHGSVKFYADSVKGRFTISRDNSKNTLYLQMNSLRAEDTAVYYCARTPGFHFDYWGQGTLVTVSSGGGGSGGGGSGGGGSQSVLTQPPSASGTPGQRVTISCSGSSSNIGSNYVSWYQQLPGTAPKLLIYYDDLRPSGVPDRFSGSKSGTSASLAISGLRSEDEADYYCSAWDDSLSGVVFGGGTKLTVLGGGGSGGGGSGGGGSGVECPPCPAPPVAGPSVFIFPPKPKDVLTITLTPKVTCVVVDISKDDPEVQFSWFVDDVEVHTAQTQPREEQFNSTFRSVSELPIMHQDWLNGKEFKCRVNSAAFPAPIEKTISKTKGRPKAPQVYTIPPCKEQMAKDKVSLWCMITDFFPEDITVEWQWNGQPAENYKNTQPIMDTDGSYFVYSKLNVQKSNWEAGNTFTCSVLHEGLHNHHTEKSLSHSPGK chain 2: EVQLLESGGGLVQPGGSLRLSCAASGFTFSSYGMHWVRQAPGKGLEWVAVISYDGSYKYYADSVKGRFTISRDNSKNTLYLQMNSLRAEDTAVYYCAAGVPDYWGQGTLVTVSSGGGGSGGGGSGGGGSQSVLTQPPSASGTPGQRVTISCSGSSSNIGSDYDVHWYQQLPGTAPKLLIYSNEERPSGVPDRFSGSKSGTSASLAISGLRSEDEADYYCSAWDSSLSGPVFGGGTKLTVLGGGGSGGGGSGGGGSGVECPPCPAPPVAGPSVFIFPPKPKDVLTITLTPKVTCVVVDISKDDPEVQFSWFVDDVEVHTAQTQPREEQFNSTFRSVSELPIMHQDWLNGKEFKCRVNSAAFPAPIEKTISKTKGRPKAPQVCTIPPPKEQMAKDKVSLSCAITDFFPEDITVEWQWNGQPAENYKNTQPIMDTDGSYFVVSKLNVQKSNWEAGNTFTCSVLHEGLHNHHTEKSLSHSPGK
